The data set concerns Escherichia coli TOP10. Kind of data set: shrunken log2 fold change of peptide-encoding DNA abundance (4.5 h post-induction vs induction); higher = less antimicrobial activity (less host growth inhibition). The note with it: time post-induction: 4.5 h; library: site-saturation at positions 5, 18, 19, 20.
With RRIRNRPPRLPRPRPRPRRPPRP, the “shrunken log2 fold change” value was 0.3.

On to RRIRCRPPRLPRPRPRPSIIPRP, for which the “shrunken log2 fold change” value was -0.348.

Turning to RRIRRRPPRLPRPRPRPHNAPRP, the “shrunken log2 fold change” value stood at 2.48. Consider RRIRIRPPRLPRPRPRPKMRPRP, for which the “shrunken log2 fold change” value was determined as 0.742. Take RRIRARPPRLPRPRPRPGRQPRP: the “shrunken log2 fold change” value amounted to 0.706. In the case of RRIRFRPPRLPRPRPRPFLSPRP it was -0.167; in that of RRIRKRPPRLPRPRPRPVIQPRP, -0.0501.

For RRIRTRPPRLPRPRPRPGFIPRP, the “shrunken log2 fold change” value is -0.585. On to RRIRGRPPRLPRPRPRPWMRPRP, for which the “shrunken log2 fold change” value is 0.444.

Regarding RRIRCRPPRLPRPRPRPTMCPRP, the “shrunken log2 fold change” value was -0.755.

Turning to RRIRRRPPRLPRPRPRPWNKPRP, the “shrunken log2 fold change” value amounted to 0.0897.

In the case of RRIRLRPPRLPRPRPRPTAQPRP, the “shrunken log2 fold change” value came out at 0.104. RRIRMRPPRLPRPRPRPQCFPRP: the “shrunken log2 fold change” value turned out to be 0.275. The value for RRIRTRPPRLPRPRPRPHGTPRP was 0.219. Regarding RRIRCRPPRLPRPRPRPMSSPRP, the “shrunken log2 fold change” value is 0.0481. For RRIRIRPPRLPRPRPRPNCMPRP, the “shrunken log2 fold change” value is -0.287. In the case of RRIRFRPPRLPRPRPRPHQHPRP it was -0.582; in that of RRIRIRPPRLPRPRPRPMANPRP, -0.104; in that of RRIRFRPPRLPRPRPRPYNGPRP, -1.47.

Take RRIRQRPPRLPRPRPRPRILPRP: the “shrunken log2 fold change” value was -0.275. For RRIRGRPPRLPRPRPRPDVSPRP, the “shrunken log2 fold change” value was 0.163. Regarding RRIRNRPPRLPRPRPRPLKGPRP, the “shrunken log2 fold change” value is -0.0139. In the case of RRIRLRPPRLPRPRPRPYEPPRP it was -0.0278. In the case of RRIRKRPPRLPRPRPRPWWIPRP it was -0.0457; in that of RRIRVRPPRLPRPRPRPENEPRP, -0.0631. With RRIRCRPPRLPRPRPRPSLPPRP, the “shrunken log2 fold change” value was -0.0253. As to RRIRSRPPRLPRPRPRPFWMPRP, the “shrunken log2 fold change” value was -0.293. In the case of RRIRTRPPRLPRPRPRPCAFPRP, the “shrunken log2 fold change” value was -0.0344. Turning to RRIRARPPRLPRPRPRPRPHPRP, the “shrunken log2 fold change” value worked out at 0.513.

For RRIRVRPPRLPRPRPRPSLSPRP, the “shrunken log2 fold change” value was -0.303. For the sequence RRIRMRPPRLPRPRPRPMMIPRP, the “shrunken log2 fold change” value was -0.025. As for RRIRFRPPRLPRPRPRPQYFPRP, the “shrunken log2 fold change” value is -0.416. The value for RRIRNRPPRLPRPRPRPPSNPRP was -0.135. Turning to RRIRTRPPRLPRPRPRPDDQPRP, the “shrunken log2 fold change” value is -0.052. In the case of RRIRMRPPRLPRPRPRPEPGPRP, the “shrunken log2 fold change” value was 2.73.

Regarding RRIRGRPPRLPRPRPRPLADPRP, the “shrunken log2 fold change” value was determined as 1.68. On to RRIRRRPPRLPRPRPRPEHDPRP, for which the “shrunken log2 fold change” value stood at 0.356.

Turning to RRIRARPPRLPRPRPRPSERPRP, the “shrunken log2 fold change” value is -0.132. For the sequence RRIRKRPPRLPRPRPRPINKPRP, the “shrunken log2 fold change” value was -0.328. For RRIRYRPPRLPRPRPRPDGMPRP, the “shrunken log2 fold change” value was 0.0112. Regarding RRIRSRPPRLPRPRPRPQPAPRP, the “shrunken log2 fold change” value was determined as 0.0373. On to RRIRQRPPRLPRPRPRPHQRPRP, for which the “shrunken log2 fold change” value stood at 0.153. Take RRIRGRPPRLPRPRPRPNRVPRP: the “shrunken log2 fold change” value came to 0.0309.

Take RRIRSRPPRLPRPRPRPLGYPRP: the “shrunken log2 fold change” value was -0.351. The value for RRIRARPPRLPRPRPRPFMFPRP was 0.189; that for RRIRHRPPRLPRPRPRPGMFPRP was -0.178. With RRIRDRPPRLPRPRPRPPWDPRP, the “shrunken log2 fold change” value is 0.442.

RRIRGRPPRLPRPRPRPRDEPRP: the “shrunken log2 fold change” value came to 0.293.

In the case of RRIRNRPPRLPRPRPRPACYPRP, the “shrunken log2 fold change” value is -0.265. Take RRIRYRPPRLPRPRPRPMCTPRP: the “shrunken log2 fold change” value is 0.00658.

For the origin of these results see the supplement of paper PMC9112550, “Optimization of the antimicrobial peptide Bac7 by deep mutational scanning” (BMC Biology, 2022).
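Further: peptides expressed intracellularly from a pBAD plasmid library in pooled LB shake-flask culture, induced with 0.3% L-arabinose, DNA abundance read by NGS, three biological replicates, DESeq2 with apeglm shrinkage.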
